One block for each binder: values may come before it.
Assays:
MBP-BSU1 [1] = biological target: T1, MBP-BSU1 (Arabidopsis, UniProt Q9LR78 1-793); assay: in vitro overlay blot, MBP-BSU1 probe, anti-MBP detection
T1 construct: Recombinant fusion used as probe in overlay (far-western) blots and in phosphatase assays; also called BSU1 from E. coli
Description: Total protein extracts obtained from Arabidopsis plants (F1) expressing BSU1 -YFP or co-expressing BSU1-YFP and BSK1-myc were immunoprecipitated with anti-myc, and the immunoblot was probed with anti-GFP and anti-myc antibody. […] GST-BSK1 or GST-BSK1 S230A was incubated with GST-BRI1-K or GST for 2 hrs. […] In the presence of BR (+BR), BR binding to the extracellular domain of BRI1 induces dissociation of BKI1 and association and inter-activation between BRI1 and BAKI. Activated BRI1 then phosphorylates BSK1, which in turn dissociates from the receptor complex and interacts with and presumably activate BSU1. BSU1 inactivates BIN2 by dephosphorylating its pTyr200, allowing accumulation of unphosphorylated BZR1/2, likely with help of a phosphatase that is yet to be identified. Unphosphorylated BZR1/2 accumulate in the nucleus and alter the expression of BR-target genes, leading to cellular and developmental responses. While individual representative protein is shown for each function, in Arabidopsis most of these components have about 2 to 5 homologous proteins (paralogs) that can contribute to the same or similar signaling function.
To test interaction of BSU1 with BIN2 or bin2-1 in vitro, a gel blot separating GST, GST-BIN2, GSTbin2-1 was incubated with 20 μg MBP-BSU1 in 5% non-fat dry milk/PBS buffer and washed four times. The blot was then probed with a polyclonal anti-MBP antibody. […]

MBP-BSU1 [2] = biological target: T1, MBP-BSU1; assay: overlay blot: GST fusions on membrane probed with MBP-BSU1 and anti-MBP antibody
Description: To test interaction of BSU1 with BIN2 or bin2-1 in vitro, a gel blot separating GST, GST-BIN2, GSTbin2-1 was incubated with 20 μg MBP-BSU1 in 5% non-fat dry milk/PBS buffer and washed four times. The blot was then probed with a polyclonal anti-MBP antibody. In the case of BSU1 overlay to BSK1, GST-BRI1-K, GST-BAK1-K and GST-BSK1 were separated by SDS-PAGE. To prepare phosphorylated BSK1, GST-BSK1 was incubated with GST-BRI1-K and 100 μM ATP in the kinase buffer for 2 hrs before SDS-PAGE. The blot was sequentially probed with MBP-BSU1 and a monoclonal anti-MBP antibody (New England Biolab, Beverly, Mass.).

[3] = biological target: T2, BSU1 fused to C-terminal half (cYFP) of YFP (Arabidopsis, UniProt Q9LR78 1-793); assay: BiFC in tobacco cells
T2 construct: BiFC construct in tobacco leaf epidermal cells, with BIN2-nYFP or bin2-1-nYFP; also called BSU1-cYFP; not shown: C-terminal half of YFP (cYFP)
Description: (§1) GST, GST-BIN2 and GST-bin2-1 were separated by SDS-PAGE and blotted onto nitrocellulose membrane. The blot was probed sequentially with MBP-BSU1 and anti-MBP antibody (upper) and then stained with Ponceau S (lower). […] The protein extracts of the tobacco leaves transiently transformed with the indicated constructs were immunoprecipitated with anti-GFP antibody, and the immunoblot was probed with anti-myc and anti-GFP antibody. […] The indicated constructs were transformed into tobacco leaf epidermal cells. Bright spots in BIN2-nYFP+cYFP are chloroplast auto-fluorescence. […] Arabidopsis plants (F1) expressing BSU1-YFP or co-expressing BSU1-YFP and BIN2-myc were grown on the medium containing BR biosynthetic inhibitor, brassinazole (BRZ), for 10 days. The plants were treated with 10 μM MG-132 for 1 hr and then with 0.2 μM BL or mock solution for 15 min. Total protein extracts were immunoprecipitated with anti-myc antibodies, and the immunoblot was probed with anti-GFP and anti-myc antibodies.
(§2) Transformation by Agrobacterium infiltration, observations of subcellular localization and BiFC signal in tobacco or Arabidopsis were performed as described previously 5. Fluorescence of YFP was visualized by using a spinning-disk confocal microscope (Leica Microsystems, Heerbruag, Germany).

[4] = biological target: T3, BSL1 fused C-terminal half (cYFP) of yellow fluorescence protein (Arabidopsis, UniProt Q8L7U5 1-881); assay: BiFC in tobacco cells
T3 construct: BiFC construct; also called BSL1-cYFP; not shown: C-terminal half of YFP (cYFP)
T3 sequence: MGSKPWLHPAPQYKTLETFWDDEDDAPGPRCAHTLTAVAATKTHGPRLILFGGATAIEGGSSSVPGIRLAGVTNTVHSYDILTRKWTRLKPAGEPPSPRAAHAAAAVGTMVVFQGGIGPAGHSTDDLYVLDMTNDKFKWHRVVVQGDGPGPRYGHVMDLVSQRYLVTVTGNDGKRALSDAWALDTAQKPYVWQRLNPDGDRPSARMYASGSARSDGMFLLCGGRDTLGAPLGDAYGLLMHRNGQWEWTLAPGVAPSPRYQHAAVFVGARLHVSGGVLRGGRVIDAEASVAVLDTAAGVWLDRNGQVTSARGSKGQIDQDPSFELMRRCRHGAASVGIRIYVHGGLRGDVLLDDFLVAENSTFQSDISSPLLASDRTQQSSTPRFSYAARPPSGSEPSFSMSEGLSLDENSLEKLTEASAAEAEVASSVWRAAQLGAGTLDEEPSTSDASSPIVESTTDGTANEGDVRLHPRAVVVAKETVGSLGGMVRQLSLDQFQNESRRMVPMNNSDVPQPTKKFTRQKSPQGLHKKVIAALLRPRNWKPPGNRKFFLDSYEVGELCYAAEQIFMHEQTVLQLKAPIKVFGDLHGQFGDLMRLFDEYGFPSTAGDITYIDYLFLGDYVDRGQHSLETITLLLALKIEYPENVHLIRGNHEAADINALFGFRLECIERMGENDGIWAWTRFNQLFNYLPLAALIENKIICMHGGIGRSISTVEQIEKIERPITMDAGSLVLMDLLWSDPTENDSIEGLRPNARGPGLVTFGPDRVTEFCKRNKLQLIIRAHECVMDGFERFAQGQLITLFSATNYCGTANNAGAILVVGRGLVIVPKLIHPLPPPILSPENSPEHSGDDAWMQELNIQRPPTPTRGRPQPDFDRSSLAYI
Description: as §1, §2

T1 sequence (Q9LR78 whole entry, the tested form may be a part): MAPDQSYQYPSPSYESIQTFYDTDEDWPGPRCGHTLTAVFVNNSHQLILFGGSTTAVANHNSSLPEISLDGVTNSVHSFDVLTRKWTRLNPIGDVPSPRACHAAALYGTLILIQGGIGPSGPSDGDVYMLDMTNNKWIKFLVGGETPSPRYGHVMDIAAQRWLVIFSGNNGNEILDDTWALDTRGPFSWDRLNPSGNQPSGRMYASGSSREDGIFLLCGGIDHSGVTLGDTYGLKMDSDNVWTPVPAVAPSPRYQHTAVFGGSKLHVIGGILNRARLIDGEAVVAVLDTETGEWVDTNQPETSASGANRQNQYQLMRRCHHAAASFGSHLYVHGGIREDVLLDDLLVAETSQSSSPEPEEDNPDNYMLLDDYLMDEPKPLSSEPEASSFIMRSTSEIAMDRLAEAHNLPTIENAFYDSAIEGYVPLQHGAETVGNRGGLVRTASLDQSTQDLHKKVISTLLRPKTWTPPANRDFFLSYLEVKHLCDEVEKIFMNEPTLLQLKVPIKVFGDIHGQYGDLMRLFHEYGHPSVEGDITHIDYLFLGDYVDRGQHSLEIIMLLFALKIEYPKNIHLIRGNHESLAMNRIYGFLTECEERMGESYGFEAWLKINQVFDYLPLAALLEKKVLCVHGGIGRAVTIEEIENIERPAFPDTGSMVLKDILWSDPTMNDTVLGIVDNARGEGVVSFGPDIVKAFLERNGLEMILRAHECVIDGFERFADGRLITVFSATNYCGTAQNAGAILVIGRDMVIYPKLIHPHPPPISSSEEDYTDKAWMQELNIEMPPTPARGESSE
T2 sequence (Q9LR78 whole entry, the tested form may be a part): as above

binding result (MBP-BSU1 [2]): binds
B2: GST-BIN2 (enzyme, Arabidopsis, UniProt Q39011 1-380, looked up)
chain: MADDKEMPAAVVDGHDQVTGHIISTTIGGKNGEPKQTISYMAERVVGTGSFGIVFQAKCLETGETVAIKKVLQDRRYKNRELQLMRVMDHPNVVCLKHCFFSTTSKDELFLNLVMEYVPESLYRVLKHYSSANQRMPLVYVKLYMYQIFRGLAYIHNVAGVCHRDLKPQNLLVDPLTHQVKICDFGSAKQLVKGEANISYICSRFYRAPELIFGATEYTTSIDIWSAGCVLAELLLGQPLFPGENAVDQLVEIIKVLGTPTREEIRCMNPHYTDFRFPQIKAHPWHKIFHKRMPPEAIDFASRLLQYSPSLRCTALEACAHPFFDELREPNARLPNGRPFPPLFNFKQEVAGSSPELVNKLIPDHIKRQLGLSFLNQSGT
modifications: phospho-tyrosine 200 (autophosphorylation site of BIN2, detected on GST-BIN2 from E. coli)
notes: Expressed and purified from E. coli; also called wild type GST-BIN2; not shown: GST (glutathione S-transferase) tag

binding result (MBP-BSU1 [1]): no binding
B5: GST-BAK1-K (receptor, Arabidopsis, UniProt Q94F62 247-615, looked up)
chain: AWWRRKKPQDHFFDVPAEEDPEVHLGQLKRFSLRELQVASDNFSNKNILGRGGFGKVYKGRLADGTLVAVKRLKEERTQGGELQFQTEVEMISMAVHRNLLRLRGFCMTPTERLLVYPYMANGSVASCLRERPESQPPLDWPKRQRIALGSARGLAYLHDHCDPKIIHRDVKAANILLDEEFEAVVGDFGLAKLMDYKDTHVTTAVRGTIGHIAPEYLSTGKSSEKTDVFGYGVMLLELITGQRAFDLARLANDDDVMLLDWVKGLLKEKKLEALVDVDLQGNYKDEEVEQLIQVALLCTQSSPMERPKMSEVVRMLEGDGLAERWEEWQKEEMFRQDFNYPTHHPAVSGWIIGDSTSQIENEYPSGPR
notes: domain: kinase domain; also called kinase domain of BAK1; not shown: GST (glutathione S-transferase) tag

The next lines start with the binder.

B1: GST-BRI1-K (receptor, Arabidopsis, UniProt O22476 815-1196, looked up)
chain: REMRKRRRKKEAELEMYAEGHGNSGDRTANNTNWKLTGVKEALSINLAAFEKPLRKLTFADLLQATNGFHNDSLIGSGGFGDVYKAILKDGSAVAIKKLIHVSGQGDREFMAEMETIGKIKHRNLVPLLGYCKVGDERLLVYEFMKYGSLEDVLHDPKKAGVKLNWSTRRKIAIGSARGLAFLHHNCSPHIIHRDMKSSNVLLDENLEARVSDFGMARLMSAMDTHLSVSTLAGTPGYVPPEYYQSFRCSTKGDVYSYGVVLLELLTGKRPTDSPDFGDNNLVGWVKQHAKLRISDVFDPELMKEDPALEIELLQHLKVAVACLDDRAWRRPTMVQVMAMFKEIQAGSGIDSQSTIRSIEDGGFSTIEMVDMSIKEVPEGKL
notes: domain: kinase domain; also called GST BR11-K; kinase domain of BRI1; not shown: GST (glutathione S-transferase) tag
binding result (MBP-BSU1 [1]): no binding

B3: BIN2 fused to the N-terminal half (nYFP) of YFP (enzyme, Arabidopsis, UniProt Q39011 1-380, looked up)
chain: B2 chain
notes: BiFC construct in tobacco cells; also called BIN2-nYFP; not shown: N-terminal half of YFP (nYFP)
binding result [3]: binds | binding result [4]: binds

B4: GST-BSK1 (enzyme, Arabidopsis, UniProt Q944A7 1-512, looked up)
chain: MGCCQSLFSGDNPLGKDGVQPQPLSQNNHGGATTADNGGSGGASGVGGGGGGGGIPSFSEFSFADLKAATNNFSSDNIVSESGEKAPNLVYKGRLQNRRWIAVKKFTKMAWPEPKQFAEEAWGVGKLRHNRLANLIGYCCDGDERLLVAEFMPNDTLAKHLFHWENQTIEWAMRLRVGYYIAEALDYCSTEGRPLYHDLNAYRVLFDEDGDPRLSCFGLMKNSRDGKSYSTNLAYTPPEYLRNGRVTPESVTYSFGTVLLDLLSGKHIPPSHALDMIRGKNIILLMDSHLEGKFSTEEATVVVELASQCLQYEPRERPNTKDLVATLAPLQTKSDVPSYVMLGIKKQEEAPSTPQRPLSPLGEACSRMDLTAIHQILVMTHYRDDEGTNELSFQEWTQQMKDMLDARKRGDQSFREKDFKTAIDCYSQFIDVGTMVSPTVFGRRSLCYLLCDQPDAALRDAMQAQCVYPDWPTAFYMQSVALAKLNMNTDAADMLNEAAQLEEKRQRGGRGS
notes: also called full-length BSK1; not shown: GST (glutathione S-transferase) tag
binding result (MBP-BSU1 [2]): binds

From patent US20120322150A1 (CARNEGIE INSTITUTION OF WASHINGTON, published 2012)
